Experiment [1] addresses T1, full length serine hydroxymethyltransferase (SEQ ID NO: 74), c-Myc tagged at the C-terminus (Escherichia coli, UniProt A7ZPZ4 1-417).
T1 construct: Expressed in Escherichia coli (DH5α); tested denatured in Western blotting of cell lysate; also called SHMT; full length: wild-type
T1 sequence: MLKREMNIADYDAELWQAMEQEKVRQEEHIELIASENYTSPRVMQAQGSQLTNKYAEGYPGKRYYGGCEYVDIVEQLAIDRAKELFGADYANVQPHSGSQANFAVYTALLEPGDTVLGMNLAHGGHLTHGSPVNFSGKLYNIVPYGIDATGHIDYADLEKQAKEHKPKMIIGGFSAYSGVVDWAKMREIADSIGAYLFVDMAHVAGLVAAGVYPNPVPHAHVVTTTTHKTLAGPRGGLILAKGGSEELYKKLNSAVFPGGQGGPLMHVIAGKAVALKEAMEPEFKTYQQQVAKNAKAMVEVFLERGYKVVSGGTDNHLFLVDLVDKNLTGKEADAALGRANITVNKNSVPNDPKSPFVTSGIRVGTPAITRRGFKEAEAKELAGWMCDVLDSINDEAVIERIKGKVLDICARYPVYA
The experiment in a line: Western blot of c-Myc-tagged full-length SHMT expressed in E. coli (DH5α).

The target in experiment [2] is T2, serine hydroxymethyltransferase Δ2-28 mutant (Escherichia coli, UniProt A7ZPZ4 29-417).
T2 construct: Expressed in Escherichia coli cells and 293T cells; tested in Western blotting of cell lysate; not shown: Myc-tag (40aa) at the C-terminus
T2 sequence: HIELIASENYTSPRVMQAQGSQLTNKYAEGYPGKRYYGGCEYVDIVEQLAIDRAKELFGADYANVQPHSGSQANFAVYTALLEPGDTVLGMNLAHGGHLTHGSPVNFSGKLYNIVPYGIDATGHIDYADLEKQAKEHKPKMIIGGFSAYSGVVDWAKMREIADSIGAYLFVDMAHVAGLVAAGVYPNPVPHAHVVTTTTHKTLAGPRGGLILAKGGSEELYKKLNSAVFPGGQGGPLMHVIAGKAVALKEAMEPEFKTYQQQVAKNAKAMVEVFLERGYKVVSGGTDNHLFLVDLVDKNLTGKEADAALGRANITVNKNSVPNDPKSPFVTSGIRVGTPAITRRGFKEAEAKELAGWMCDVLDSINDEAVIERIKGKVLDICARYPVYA
The experiment in a line: Western blot of cell lysates (E. coli and 293T expression). For orientation: A western blot detects proteins with antibodies after separation by electrophoresis.

B1: W34 monoclonal IgA antibody (antibody, V domains shown)
VH: DVQLQESGPGMVKPSQSLSLTCTVTGYSITSGYDWHWIRHFPGNKLEWMGYISYSGSTDYNPALRSRISITRDTSTNHFFLKVNSVTTEDTATYYCARDGYGSNYVMAYWGQGTSVTVSS
VL: QIVLTQSPAIMSASPGEKVTITCSASSSVHYIHWFQLKPGTSPKLWIYSTSNLASGVPARFSGSGSGTSYSLTISRMEAEDAATYYCQQRSSYPLTFGAGTKLELKR
notes: Mouse IgA from hybridoma
For the molecule B1, the binding result in experiment [1] is recorded as “binds”.

B2: W11 monoclonal IgA antibody (antibody, V domains shown)
VH: QVQLKQSGPGLVQPSQSLSITCTVSGFSLTNYGVHWIRQSPGKGLEWLGVIWSGGRIDYNAAFISRLNINKDNSKSQVFFKMNSLQTDDTAIYYCARTYDGYYFFQYWGQGTPLTVSS
VL: DVVMTQTPLSLPVSLGDEASISCRSSRSLIHSNGHTFLDWYLQKPGQSPKLLIYKVSNRFSGVPDRFSGSGSGTDFTLKISRVEAEDLGVYFCAQSTHAPLLTFGAGTKLELKR
notes: Mouse IgA from hybridoma
Regarding B2, the binding result in experiment [1] is “binds”.

B3: W27 monoclonal IgA antibody (antibody, V domains shown)
VH: EVQLQQSGSELVKSGASVKLSCTVSGFNFTDYYIHWVRQRTEQGLEWIGRIDPENDETTYAPKFQGKATMTADTSSNTAYLQLTSLTSEDTAVYYCARSTVLDYWGHGTTLTVSS
VL: DVLMTQTPLSLPVSLGDQASISCRASQSIVHTNGNTYLEWYLQKPGQSPKLLIYKVSNRFSGVPDRFSGSGSGTDFILKISRVEAEDLGVYYCFQGSHVPPTFGGGTKLEVKR
notes: Mouse IgA from a hybridoma of small-intestinal lamina propria B cells of wild-type C57BL/6 mice, partially purified
Turning to B3, the binding result in experiment [2] was “no binding”.

Source of the values: US20180009906A1 (CURED, published 2018).
